System: free histones (mixture of H1, H3, H2B, H2A and H4; Boehringer Mannheim)

GST-EZH2(382-747), sequence (chain, as listed by the source): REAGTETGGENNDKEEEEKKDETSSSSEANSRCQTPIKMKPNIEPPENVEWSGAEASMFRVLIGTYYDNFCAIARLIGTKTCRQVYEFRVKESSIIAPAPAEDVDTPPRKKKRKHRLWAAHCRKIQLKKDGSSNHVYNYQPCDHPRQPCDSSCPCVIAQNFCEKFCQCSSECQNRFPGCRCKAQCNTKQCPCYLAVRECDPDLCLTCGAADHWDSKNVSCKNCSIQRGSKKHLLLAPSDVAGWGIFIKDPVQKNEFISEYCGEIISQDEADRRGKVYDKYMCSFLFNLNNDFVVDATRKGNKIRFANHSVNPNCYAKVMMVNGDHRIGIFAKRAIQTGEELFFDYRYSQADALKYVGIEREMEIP

Substance | HMTase activity
GST-EZH2(382-747) | had undetectable HMTase activity towards free histones
GST-HRX(3643-3969) | had undetectable HMTase activity towards free histones
GST-Suv39h2(157-477) | The SU(VAR)3-9 family members assayed, SUV39H1, Suv39h2 and CLR4, displayed HMTase activity.

Reference: US20020039776
